# Source: paper PMC2654718 (Biochemistry, 2009)
# Ends that are not written are not given here.
# Biological target: MBP-VDR-LBDmt (human)
# Test: fluorescence polarisation
row,Binder,Kd [µM]
1,"C(Texas Red maleimide)KVSQNPILTSLLQITGNGG [DRIP205-1 peptide, Texas Red labeled]",> 20
2,"C(Texas Red maleimide)AASKHKQLSELLRSGSSPN [P300 peptide, Texas Red labeled]",> 20
3,"C(Texas Red maleimide)QAANNSLLLHLLKSQTIPK [RIP140-5 peptide, Texas Red labeled]",< 20
